T1: human TIGIT on Jurkat cells (TIGIT/NFAT reporter Jurkat cells, BPS Bioscience #60538); Promega TIGIT Effector … (human, UniProt Q495A1 22-244)
T1 sequence (looked up): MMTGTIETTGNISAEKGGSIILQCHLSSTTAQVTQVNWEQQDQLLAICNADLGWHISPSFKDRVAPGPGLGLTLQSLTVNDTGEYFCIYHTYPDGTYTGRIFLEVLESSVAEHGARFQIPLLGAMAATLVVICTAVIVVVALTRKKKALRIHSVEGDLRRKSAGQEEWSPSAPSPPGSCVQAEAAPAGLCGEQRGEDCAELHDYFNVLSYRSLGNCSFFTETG

T2: his-tagged human TIGIT (Acro Biosystems #TIT-H52H3) (human, UniProt Q495A1 22-141)
T2 construct: Bought protein; also called His-tagged-TIGIT (human); not shown: his tag
T2 sequence (looked up): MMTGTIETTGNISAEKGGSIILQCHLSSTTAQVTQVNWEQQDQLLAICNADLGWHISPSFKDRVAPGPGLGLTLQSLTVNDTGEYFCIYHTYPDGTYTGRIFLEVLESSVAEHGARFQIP

T3: his-tagged murine TIGIT (Acro Biosystems #TIT-M52E6) (murine, UniProt P86176 29-148, limits assumed)
T3 construct: Bought protein; also called mouse his-tagged TIGIT; not shown: his tag
T3 sequence (looked up): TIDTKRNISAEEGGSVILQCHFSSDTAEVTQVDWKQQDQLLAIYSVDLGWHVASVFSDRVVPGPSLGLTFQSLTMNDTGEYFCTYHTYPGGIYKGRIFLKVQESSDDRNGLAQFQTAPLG


Key:
[1] = biological target: T1, human TIGIT on Jurkat cells (TIGIT/NFAT …); assay: cell-based or functional assay
[2] = biological target: T2, his-tagged human TIGIT (Acro Biosystems …); assay: ELISA, coated His-TIGIT, 1 ug/ml
[3] = biological target: T3, his-tagged murine TIGIT (Acro …); assay: ELISA, coated His-TIGIT, 1 ug/ml
[4] = biological target: T4, His-tagged cynomolgus monkey TIGIT (Acro Biosystems #TIT-05223) (cynomolgus monkey, UniProt A0A7N9I9V4 89-209); assay: ELISA, coated His-TIGIT, 1 ug/ml
T4 construct: Bought protein; also called cyno TIGIT; cynomolgus TIGIT; not shown: His tag

[5] = biological target: T1, human TIGIT on Jurkat cells (TIGIT/NFAT …); assay: flow cytometry, TIGIT/NFAT Jurkat cells, 10 ug/ml
[6] = biological target: T2, his-tagged human TIGIT (Acro Biosystems …); assay: SPR (Carterra LSA), scFv-Fc captured, His-TIGIT analyte
Summary of the method: (§1)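 Affinity from His-TIGIT analyte injected in 1:2 serial dilution over antibody captured as scFv-Fc via amine-coupled goat anti-human Fc on an HC30M surface. Supernatants diluted 30-fold in HBSTE; kinetic fitting.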

[7] = biological target: T3, his-tagged murine TIGIT (Acro …); assay: as above
Summary of the method: as §1

[8] = biological target: T4, His-tagged cynomolgus monkey TIGIT …; assay: as above
Summary of the method: as §1

[9] = biological target: T3, his-tagged murine TIGIT (Acro …); assay: SPR (Carterra LSA), scFv-Fc captured, His-TIGIT analyte; repeat
Description: (§2) Binding affinities of anti-TIGIT antibodies to human, cyno, and murine TIGIT were measured by Surface Plasmon Resonance (SPR) on a Carterra LSA instrument. Goat anti-human Fc antibody was amine coupled to a HC30M chip. ScFv-Fc supernatants were diluted 30-fold with HBSTE and were captured by the anti-human Fc coupled HC30M chip. A 1:2 dilution series of his-tagged human TIGIT, starting at 400 nM, was injected onto the chip for binding. A dilution series was also carried out for cyno TIGIT and murine TIGIT. Data were analyzed using the Carterra™ Kinetics software.

[10] = biological target: T4, His-tagged cynomolgus monkey TIGIT …; assay: as above
Description: as §2

T4 sequence (A0A7N9I9V4 entry or part of it): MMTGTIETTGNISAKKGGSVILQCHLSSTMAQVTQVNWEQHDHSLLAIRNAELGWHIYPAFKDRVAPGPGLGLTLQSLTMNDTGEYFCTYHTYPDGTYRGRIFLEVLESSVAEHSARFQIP

Binder	max. signal (% of 22G2) [1]	Elisa OD450 [2] [OD450]	Elisa OD450 [3] [OD450]	Elisa OD450 [4] [OD450]	MFI [5] [MFI]	Kd [6] [nM]	Kd [7] [nM]	Kd [8] [nM]	Kd [9] [nM]	Kd [10] [nM]
43586p1.2.B2 (scFv, V domains shown) VH: EMQLLESGGGLVQPGGSLRLSCAASGFTFDDYVMSWVRQAPGKGLEWVSLINWNGDKTYYADSVKGRFTISRDNSKNTLYLQMNSLRAEDTAIYYCAKHWIVFQYGMDVWGQGTTVTVSS VL: QSVLTQPPSASGTPGQRVTISCSGSISNIETKYVSWYQQLPGTAPKLLIYNSDQRPSGVPDRFSGSKSGTSASLAISGLQSEDEADYYCVSWDASLKSWVFGGGTKLTVL	121 % of 22G2	2.06	2.01	1.57	9270	0.245	3.28	14.3	1.3	1.8
43586p1.2.C11 (scFv, V domains shown) VH: EVQLLESGGGLVQPGGSLRLSCAASGFTFDDYVMSWVRQAPGKGLEWVSLINWNGDKTYCADSVKGRFTISRDNSKNTLYLQMNSLRAEDTAIYYCAKHWIVFQYGMDVWGQGTTVTVSS VL: QSVLTQPPSASGTPGQRVTISCSGSISNIETKYVSWYQQLPGTAPKLLIYNSDQRPSGVPDRFSGSKSGTSASLAISGLQSEDEADYYCVSWDASLKSWVFGGGTKLTVL	106 % of 22G2	2.03	2.01	1.81	9550	0.0517	1.45	2.56	1.8	1.9
43586p1.2.E1 (scFv, V domains shown) VH: EVQLLESGGGLVQPGGSLRLSCAASGFTFSDYLMTWVRQAPGKELEWVSTITWDGDRTYYADSVKGRFTISRDNSKNTLYLQMNSLRAEDTAVYYCAKHWTVFQYGMDVWGQGTTVTVSS VL: QSVLTQPPSASGTPGQRVTISCSGTISNIEIKYVSWYQQLPGTAPKLLIYGNHQRPSGVPDRFSGSKSGTSASLAISGLQSEDEADYYCSSWENDLKSWVFGGGTKLTVL	111 % of 22G2	2.25	2.11	1.85	9480	0.029	7.34	6.27	22	3.2
43586p2.A03 (scFv, V domains shown) VH: EVQLLESGGGLVQPGGSLRLSCAASGFTFTSYAMSWVRQAPGKGLEWVAGISYIGRNEYYADSVKGRLTISRDNSKNTLYLQMNNLRAEDTAIYYCAKHLTGGTTDYYYYGMDVWGQGTTVTVSS VL: QSVLTQPPSASGTPGQRVTISCSGSTSNIGTSRYVHWYQQLPGTAPKLLIYFDSQRPSGVPDRFSASKSGTSASLAISGLQSEDEADYYCATWDDSLSAWVFGGGTKLTVL	109 % of 22G2	1.96	0.046	1.41	9070	0.386		63		33
43586p2.G10 (scFv, V domains shown) VH: EVQLLESGGGLVQPGGSLRLSCAASGFTFDDYVMSWVRQAPGKGLEWVSLINWSGGTTYYADSVKGRFTISRDNSKNTLYLQMNSLRAEDTAVYYCAKHWIVYQYGMDVWGQGTTVTVSS VL: QSVLTQPSSASGTPGQRVTISCSGTISNIETKYVSWYKYVSWYQQLPGTAPKLLIYNNVQRPSGVPDRFSGSQSGTSASLAISGLQSEDEAHYYCASWEGGLNSWVFGGGTKLTVL	99 % of 22G2	2.21	2.23	1.83	9400	0.267	3.05		0.919	3.7
43645p1.B2 (scFv, V domains shown) VH: EVQLLESGGGLVQPGGSLRLSCATSGFTFSSYWMSWVRQAPGKGLEWVSGIHISDSTYYADSVKGRFTISRDNSKNTLYLQMNSLRAEDTAVYYCAKGHTVLQYGMDVWGQGTTVTVSS VL: QSGLTQPPSASGTPGQRVTISCSGDISNTRNNYVSWYQQLPGTAPKLLIYGNHQRPSGVPDRFSGSKSATSASLAISGLQSEDEADYHCGTWDNTLNAWVFGGGTKLTVL	111 % of 22G2	2.42	1.85	1.61	8950	0.0464			42	0.93
43645p1.D1 (scFv, V domains shown) VH: EVQLLESGGDLVQSGGSLRLSCAASGFSFWGYAMTWVRQAPGKGLEWVSTIAGNSYTYYADSVKGRFTISRDNSKNMVYLQMNGLRAEDTAVYYCAKDRSFYNYYDIDVWGQGTTVTVSS VL: not shown	111 % of 22G2	2.02	0.047	1.51	9250	0.343		17.6	14	2.9
43645p1.D3 (scFv, V domains shown) VH: EVQLLESGGGLVQPGGSLRLSCAASGFTFSSYWMSWVRQAPGKGLEWVSGIHISDSTYYADSVKGRFTISRDNSKNTLYLQMNSLRAEDTAVYYCAKGHTVLQYGMDVWGQGTTVTVSS VL: QSGLTQPPSASGTPGQRVTISCSGDISNTRNNYVSWYQQLPGTAPKLLIYGNHQRPSGVPDRFSGSKSATSASLAISGLQSEDEADYYCGTWDNTLNAWVFGGGTKLTVL	115 % of 22G2	2.13	1.9	1.74	9350	0.0171			19	0.32
43645p1.D8 (scFv, V domains shown) VH: EVQLLESGGDLVQSGGSLRLSCAASGFSFWGYAMTWVRQAPGKGLEWVSTIAGNSYAYYADSVKGRFTISRDNSKNMVYLQMNGLRAEDTAVYYCAKDRSFYNYYDIDVWGQGTTVTVSS VL: not shown	108 % of 22G2	1.77	0.053	1.36	10300	0.416		24.5		1.9
43645p1.E3 (scFv, V domains shown) VH: EVQLLESGGGLVQPGGSLRLSCAASGFTFSSYAMSWVRQAPGKGLEWVSAIYFDGSIYDADSVKGRFTISRDNSKNTLYLQMNSLRDEDTAVYYCAKSHTVLQYGMDVWGQGTTVTVSS VL: QSVLTQPPSASGTPGQRVTISCSGVTSNIRNSYVSWYQQLPGTAPKLLIYGNDQRPSGVPDRFSGSKSGTSASLAISGLQSEDEADYYCGTWDNTLNAWVFGGGTKLTVL	103 % of 22G2	1.99	0.947	1.53	9950	0.0267		6.96		5.5
43645p1.H10 (scFv, V domains shown) VH: EVQLLESGGGLVQAGGSLRLSCAASGFTFDDYVMTWVRQAPGKGLEWVSLINWSGDRTYYADSVKGRFTISRDNSKNTLYLQMNSLRAEDTAVYYCVKHNLNYYYGMDVWGQGTTVTVSS VL: QSVLTQPPSVSGTPGQRVTISCSGTISNVGNKYVSWYQQVPGTAPKLLIDYNQRPSGVPDRFSGSQSGTSASLTISGLQSEDEADYYCATWDDSLKGWVFGGGTKLTVL	109 % of 22G2	2	1.7	1.85	10000	0.128			0.595	0.181
